Results reported in paper PMC6937560.

Target: myeloperoxidase (MPO), mature form from neutrophils of healthy human donors (human) (UniProt P05164)
Assay: native MS; about 3 uM MPO in 150 mM ammonium acetate pH 7.5, direct infusion, Micromass LCT; monomer (light + heavy chain) to dimer

- stoichiometry N: 2
Substance: myeloperoxidase (MPO), mature form from neutrophils of healthy human donors (from UniProt P05164 279-745) (enzyme)
